Data from article PMC5045296.
One block for each binder: values may come before it.

Experiments:
[1] = target: tubulin (alpha/beta heterodimer), polymerised into microtubules or as free tubulin-dimers (porcine) (UniProt P02550)
[2] = target: tubulin (alpha/beta heterodimer), polymerised into microtubules or as free tubulin-dimers (porcine) (UniProt P02550); test: co-sedimentation; KIF19A protein (printed 'Two micromoles') with 0-40 μM taxol-stabilized MTs in PEM buffer, 25°C, 15 min, AMP-PNP; 38,000 xg 10 min; SDS-PAGE band intensities; one site binding model
[3] = target: tubulin (alpha/beta heterodimer), polymerised into microtubules or as free tubulin-dimers (porcine) (UniProt P02550); remark: listed apart in the source
[4] = target: tubulin (alpha/beta heterodimer), polymerised into microtubules or as free tubulin-dimers (porcine) (UniProt P02550); remark: listed apart in the source
[5] = target: tubulin (alpha/beta heterodimer), polymerised into microtubules or as free tubulin-dimers (porcine) (UniProt P02550); remark: listed apart in the source
[6] = target: tubulin (alpha/beta heterodimer), polymerised into microtubules or as free tubulin-dimers (porcine) (UniProt P02550); remark: listed apart in the source

B1: KIF19A-353 (mouse KIF19A motor domain, monomeric construct) (domain or fragment)
chain: MKDSGDSKDQQLMVALRVRPISVAELEEGATLIAHKMDEQMVVLMDPMEDPDDILRAHRSREKSYLFDVAFDFTATQEMVYQATTKSLIEGVISGYNATVFAYGPTGCGKTYTMLGTDHEPGIYVRTLNDLFRAIEETSNDMEYEVSMSYLEIYNEMIRDLLNPALGYLELREDSKGVIQVAGITEVSTINAKEIMQLLMKGNRQRTQEPTAANQTSSRSHAVLQVAVRQRSRVKNILQEVRQGRLFMIDLAGSERASQTQNRGQRMKEGAHINRSLLALGNCINALSDKGSNKYINYRDSKLTRLLKDSLGGNSRTVMIAHISPASTAFEESRNTLTYAGRAKNIRTRVKQN
MT-stimulated steady-state ATPase, maximum rate [1]: 1.43 s⁻¹
steady-state ATPase stimulated by free tubulin-dimers, maximum rate [1]: 0.8 s⁻¹
Kd [2]: 600 nM

B2: KIF19A-353 K2A (K290 and K294 replaced with alanine) (domain or fragment)
chain: MKDSGDSKDQQLMVALRVRPISVAELEEGATLIAHKMDEQMVVLMDPMEDPDDILRAHRSREKSYLFDVAFDFTATQEMVYQATTKSLIEGVISGYNATVFAYGPTGCGKTYTMLGTDHEPGIYVRTLNDLFRAIEETSNDMEYEVSMSYLEIYNEMIRDLLNPALGYLELREDSKGVIQVAGITEVSTINAKEIMQLLMKGNRQRTQEPTAANQTSSRSHAVLQVAVRQRSRVKNILQEVRQGRLFMIDLAGSERASQTQNRGQRMKEGAHINRSLLALGNCINALSDAGSNAYINYRDSKLTRLLKDSLGGNSRTVMIAHISPASTAFEESRNTLTYAGRAKNIRTRVKQN
EC50 of depolymerization of GMPCPP-stabilized MTs (5 mM ATP) [3]: 678 nM
MT depolymerization speed (TIRF, 125 nM motor) [3]: 2 nm/s
Kd [2]: 3000 nM

B5: KIF19A-353 GS2R (G291 and S292 mutated to arginine) (domain or fragment)
chain: MKDSGDSKDQQLMVALRVRPISVAELEEGATLIAHKMDEQMVVLMDPMEDPDDILRAHRSREKSYLFDVAFDFTATQEMVYQATTKSLIEGVISGYNATVFAYGPTGCGKTYTMLGTDHEPGIYVRTLNDLFRAIEETSNDMEYEVSMSYLEIYNEMIRDLLNPALGYLELREDSKGVIQVAGITEVSTINAKEIMQLLMKGNRQRTQEPTAANQTSSRSHAVLQVAVRQRSRVKNILQEVRQGRLFMIDLAGSERASQTQNRGQRMKEGAHINRSLLALGNCINALSDKRRNKYINYRDSKLTRLLKDSLGGNSRTVMIAHISPASTAFEESRNTLTYAGRAKNIRTRVKQN
Michaelis-Menten constant of the ATPase for MTs and for tubulins, against 353WT (times lower than 353WT) [5]: 4
Kd [2]: 600 nM

Next, values leading:

tubulin-stimulated ATPase rate, against the wild type (of the wild type) [4]: 0.5
B3: KIF19A-353 N297P (domain or fragment)
chain: MKDSGDSKDQQLMVALRVRPISVAELEEGATLIAHKMDEQMVVLMDPMEDPDDILRAHRSREKSYLFDVAFDFTATQEMVYQATTKSLIEGVISGYNATVFAYGPTGCGKTYTMLGTDHEPGIYVRTLNDLFRAIEETSNDMEYEVSMSYLEIYNEMIRDLLNPALGYLELREDSKGVIQVAGITEVSTINAKEIMQLLMKGNRQRTQEPTAANQTSSRSHAVLQVAVRQRSRVKNILQEVRQGRLFMIDLAGSERASQTQNRGQRMKEGAHINRSLLALGNCINALSDKGSNKYIPYRDSKLTRLLKDSLGGNSRTVMIAHISPASTAFEESRNTLTYAGRAKNIRTRVKQN

Kd [2]: 1600 nM
B4: KIF19A-353 L55A (domain or fragment)
chain: MKDSGDSKDQQLMVALRVRPISVAELEEGATLIAHKMDEQMVVLMDPMEDPDDIARAHRSREKSYLFDVAFDFTATQEMVYQATTKSLIEGVISGYNATVFAYGPTGCGKTYTMLGTDHEPGIYVRTLNDLFRAIEETSNDMEYEVSMSYLEIYNEMIRDLLNPALGYLELREDSKGVIQVAGITEVSTINAKEIMQLLMKGNRQRTQEPTAANQTSSRSHAVLQVAVRQRSRVKNILQEVRQGRLFMIDLAGSERASQTQNRGQRMKEGAHINRSLLALGNCINALSDKGSNKYINYRDSKLTRLLKDSLGGNSRTVMIAHISPASTAFEESRNTLTYAGRAKNIRTRVKQN

K (M, MT) of the MT-stimulated ATPase, against 353WT (times that of 353WT) [6]: 30
Kd [2]: 5800 nM
B6: KIF19A-353 PC2A (R56A-H58A-R59A-R61A) (domain or fragment)
chain: MKDSGDSKDQQLMVALRVRPISVAELEEGATLIAHKMDEQMVVLMDPMEDPDDILAAAASAEKSYLFDVAFDFTATQEMVYQATTKSLIEGVISGYNATVFAYGPTGCGKTYTMLGTDHEPGIYVRTLNDLFRAIEETSNDMEYEVSMSYLEIYNEMIRDLLNPALGYLELREDSKGVIQVAGITEVSTINAKEIMQLLMKGNRQRTQEPTAANQTSSRSHAVLQVAVRQRSRVKNILQEVRQGRLFMIDLAGSERASQTQNRGQRMKEGAHINRSLLALGNCINALSDKGSNKYINYRDSKLTRLLKDSLGGNSRTVMIAHISPASTAFEESRNTLTYAGRAKNIRTRVKQN
